Data: paper doi:10.1101/2020.10.28.360099 (bioRxiv, 2020)

B1: jack bean asparaginyl endopeptidase 1 (CeAEP1) (enzyme, Canavalia ensiformis (jack bean), UniProt P49046 36-475, looked up)
chain: EVGTRWAVLVAGSNGYGNYRHQADVCHAYQLLIKGGVKEENIVVFMYDDIAYNAMNPRPGVIINHPQGPDVYAGVPKDYTGEDVTPENLYAVILGDKSKVKGGSGKVINSNPEDRIFIFYSDHGGPGVLGMPNAPFVYAMDFIDVLKKKHASGGYKEMVIYIEACESGSIFEGIMPKDLNIYVTTASNAQENSFGTYCPGMNPPPPEEYVTCLGDLYSVSWMEDSETHNLKRETVQQQYQSVRKRTSNSNSYRFGSHVMQYGDTNITAEKLYLYHGFDPATVNFPPHNGNLEAKMEVVNQRDAELLFMWQMYQRSNHQPEKKTHILEQITETVKHRNHLDGSVELIGVLLYGPGKSSSVLHSVRAPGLPLVDDWTCLKSMVRVFETHCGSLTQYGMKHMRAFGNVCNSGVSKASMEEACKAACGGYDAGLLYPSNTGYSA
modifications: succinimide intermediate (SNN) modelled at Asp157

Assays:
[1] = molecular target: recombinant jack bean conA precursor (pro-conA) (Canavalia ensiformis (jack bean)); assay: crystal structure
[2] = molecular target: the molecule itself; assay: crystal structure

Row | Molecule | stoichiometry N [1] | stoichiometry N [2]
1 | recombinant jack bean conA precursor (pro-conA) (natural protein) | 2 | –
2 | B1 | – | 2
